Results taken from patent publication US20110300138A1 (published 2011).
Each block holds one substance with its values, some of them ahead of it.

Key:
[1] = biological target: TSH receptor (full length human TSHR) coated on tubes (human) (UniProt P16473); test: 125I-TSH binding inhibition, TSHR coated tubes; 0.5 units/L, in serum
[2] = biological target: TSH receptor (full length human TSHR) coated on tubes (human) (UniProt P16473); test: 125I-TSH binding inhibition, TSHR coated tubes; 1.0 units/L, in serum
[3] = biological target: TSH receptor (full length human TSHR) coated on tubes (human) (UniProt P16473); test: 125I-TSH binding inhibition, TSHR coated tubes; 2.0 units/L, in serum
[4] = biological target: TSH receptor (full length human TSHR) coated on tubes (human) (UniProt P16473); test: 125I-TSH binding inhibition, TSHR coated tubes; 4.0 units/L, in serum
[5] = biological target: TSH receptor (full length human TSHR) coated on tubes (human) (UniProt P16473); test: 125I-TSH binding inhibition, TSHR coated tubes; 8.0 units/L, in serum
[6] = biological target: TSH receptor (full length human TSHR) coated on tubes (human) (UniProt P16473); test: 125I-TSH binding inhibition, TSHR coated tubes; 0.25 units/L, in serum
[7] = biological target: TSH receptor (full length human TSHR) coated on tubes (human) (UniProt P16473); test: 125I-TSH binding inhibition, TSHR coated tubes; 40.0 units/L, in serum
[8] = biological target: TSH receptor (full length human TSHR) coated on tubes (human) (UniProt P16473); test: 125I-TSH binding inhibition, TSHR coated tubes; 0.125 units/L, in serum
[9] = biological target: TSH receptor (full length human TSHR) coated on tubes (human) (UniProt P16473); test: 125I-TSH binding inhibition, TSHR coated tubes; 0.5 units/L, in assay buffer
[10] = biological target: TSH receptor (full length human TSHR) coated on tubes (human) (UniProt P16473); test: 125I-TSH binding inhibition, TSHR coated tubes; 1.0 units/L, in assay buffer
[11] = biological target: TSH receptor (full length human TSHR) coated on tubes (human) (UniProt P16473); test: 125I-TSH binding inhibition, TSHR coated tubes; 2.0 units/L, in assay buffer
[12] = biological target: TSH receptor (full length human TSHR) coated on tubes (human) (UniProt P16473); test: 125I-TSH binding inhibition, TSHR coated tubes; 4.0 units/L, in assay buffer
[13] = biological target: TSH receptor (full length human TSHR) coated on tubes (human) (UniProt P16473); test: 125I-TSH binding inhibition, TSHR coated tubes; 8.0 units/L, in assay buffer
[14] = biological target: TSH receptor (full length human TSHR) coated on tubes (human) (UniProt P16473); test: 125I-TSH binding inhibition, TSHR coated tubes; 0.25 units/L, in assay buffer
[15] = biological target: TSH receptor (full length human TSHR) coated on tubes (human) (UniProt P16473); test: 125I-TSH binding inhibition, TSHR coated tubes; 40.0 units/L, in assay buffer
[16] = biological target: TSH receptor (full length human TSHR) coated on tubes (human) (UniProt P16473); test: 125I-TSH binding inhibition, TSHR coated tubes; 0.125 units/L, in assay buffer
[17] = biological target: TSH receptor (full length human TSHR) coated on tubes (human) (UniProt P16473); test: 125I-TSH binding to TSHR coated tubes, in assay buffer, no inhibitor
[18] = biological target: TSH receptor (full length human TSHR) coated on tubes (human) (UniProt P16473); test: 125I-TSH binding to TSHR coated tubes, in HBD serum pool, no inhibitor
[19] = biological target: TSH receptor (TSHR), full length human, coated on tubes (human) (UniProt P16473); test: binding of 125I-TSH to TSHR coated tubes, in assay buffer, no competitor
[20] = biological target: TSH receptor (TSHR), full length human, coated on tubes (human) (UniProt P16473); test: as above; remark: listed apart in the source
[21] = biological target: TSH receptor (TSHR), full length human, coated on tubes (human) (UniProt P16473); test: binding of 125I-TSH to TSHR coated tubes, in HBD serum pool, no competitor
[22] = biological target: TSHR coated tubes (full length TSHR) (human) (UniProt P16473); test: 125I-TSH binding to TSHR coated tubes in assay buffer only (no competitor)
[23] = biological target: TSH receptor (full length human TSHR) coated on tubes (human) (UniProt P16473); test: 125I-TSH bound to TSHR coated tubes, in assay buffer
[24] = biological target: TSH receptor (full length human TSHR) coated on tubes (human) (UniProt P16473); test: 125I-TSH bound to TSHR coated tubes, in HBD pool serum

Inhibition of binding (%) [1]: 5.6% | Inhibition of binding (%) [2]: 8.1% | Inhibition of binding (%) [3]: 18.2% | Inhibition of binding (%) [4]: 34.8% | Inhibition of binding (%) [5]: 65.3% | Inhibition of binding (%) [6]: 0% | Inhibition of binding (%) [7]: 90.9% | Inhibition of binding (%) [8]: 0% | Inhibition of binding (%) [9]: 3.1% | Inhibition of binding (%) [10]: 14% | Inhibition of binding (%) [11]: 26.2% | Inhibition of binding (%) [12]: 49% | Inhibition of binding (%) [13]: 62.7% | Inhibition of binding (%) [14]: 0% | Inhibition of binding (%) [15]: 91% | Inhibition of binding (%) [16]: 0%
Substance: WHO reference preparation NIBSC 90/672

% binding [17]: 10.8% | % binding [18]: 12.4% | ^125I-TSH binding (%) [19]: 11% | ^125I-TSH binding (%) [20]: 13.4% | ^125I-TSH binding (%) [21]: 11.5% | % of ^125I-TSH binding [22]: 12.4%
Substance: ^125I-TSH (ligand)

125I-TSH binding (%) [23]: 17.7% | 125I-TSH binding (%) [24]: 16%
Substance: 125I-TSH (ligand)
